Experimental data as given in patent US20090220470A1.

Key:
[1] = molecular target: poly-ubiquitylated proteins (of cell lysates); experiment: cell-based or functional assay
[2] = molecular target: K48 tetra-ubiquitin (Boston Biochem) (UniProt P0CG48); experiment: SPR (BiaCore 3000), dissociation followed over two hours (data not shown)
[3] = molecular target: K63 tetra-ubiquitin (Boston Biochem) (UniProt P0CG48); experiment: as above
[4] = molecular target: K48 tetra-ubiquitin (Boston Biochem) (UniProt P0CG48); experiment: ratio of the literature Kd of the single UBA (Raasi et al.) to the SPR Kd of the TUBE
[5] = molecular target: K63 tetra-ubiquitin (Boston Biochem) (UniProt P0CG48); experiment: as above
[6] = molecular target: Mono-ubiquitin (Sigma Aldrich) (UniProt P0CG48); experiment: SPR (BiaCore 3000), captured via GST on anti-GST chip, mono-ubiquitin injected, steady state
[7] = molecular target: K48 tetra-ubiquitin (Boston Biochem) (UniProt P0CG48); experiment: SPR (BiaCore 3000), dissociation phase fitted with a double exponential, first (rapid) phase
[8] = molecular target: K63 tetra-ubiquitin (Boston Biochem) (UniProt P0CG48); experiment: as above
[9] = molecular target: K48 tetra-ubiquitin (Boston Biochem) (UniProt P0CG48); experiment: SPR (BiaCore 3000), dissociation phase fitted with a double exponential, second (slow) phase
[10] = molecular target: K63 tetra-ubiquitin (Boston Biochem) (UniProt P0CG48); experiment: as above
[11] = molecular target: K48 tetra-ubiquitin (Boston Biochem) (UniProt P0CG48); experiment: SPR (BiaCore 3000), GST-TUBE captured on anti-GST chip at low density, tetra-ubiquitin injected, steady-state fit
[12] = molecular target: K63 tetra-ubiquitin (Boston Biochem) (UniProt P0CG48); experiment: as above
[13] = molecular target: Mono-ubiquitin (Sigma Aldrich) (UniProt P0CG48); experiment: SPR (Biacore), GST fusion captured on anti-GST antibody chip (150-220 RU), mono-ubiquitin injected in a 2-fold dilution series, steady-state fit
[14] = molecular target: Mono-ubiquitin (Sigma Aldrich) (UniProt P0CG48); experiment: SPR (BIACORE 3000), GST-p62 UBA polypeptide captured on anti-GST chip, ubiquitin injected
[15] = molecular target: Mono-ubiquitin (Sigma Aldrich) (UniProt P0CG48); experiment: SPR (BIACORE 3000), GST-p62 UBA polypeptide captured on anti-GST antibody chip, ubiquitin injected

Sequence of Ubiquilin1 TUBE (TUBE comprising 4 ubiquilin-1 UBA domains, GST fusion with His6 and SV5 tags) (designed binder) (chain, part): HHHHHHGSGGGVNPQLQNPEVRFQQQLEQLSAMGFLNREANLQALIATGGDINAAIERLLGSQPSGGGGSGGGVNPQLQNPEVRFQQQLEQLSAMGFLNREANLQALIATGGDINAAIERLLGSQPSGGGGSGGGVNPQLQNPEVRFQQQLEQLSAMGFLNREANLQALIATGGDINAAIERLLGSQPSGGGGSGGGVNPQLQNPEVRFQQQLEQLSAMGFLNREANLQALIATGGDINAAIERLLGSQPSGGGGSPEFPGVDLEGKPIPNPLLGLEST
Sequence of hHR23A TUBE (TUBE comprising 4 hHR23a UBA-1 domains, GST fusion with His6 and SV5 tags) (designed binder) (chain, part): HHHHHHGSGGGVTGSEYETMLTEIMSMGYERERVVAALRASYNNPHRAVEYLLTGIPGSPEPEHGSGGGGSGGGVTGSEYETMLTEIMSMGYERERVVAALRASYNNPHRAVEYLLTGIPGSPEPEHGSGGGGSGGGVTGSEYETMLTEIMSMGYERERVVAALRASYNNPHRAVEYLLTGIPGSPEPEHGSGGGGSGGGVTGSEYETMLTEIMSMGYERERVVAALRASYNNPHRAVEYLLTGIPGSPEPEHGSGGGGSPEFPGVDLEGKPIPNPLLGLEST

Substance | lowest TUBE concentration at which protection from de-ubiquitylation was detectable [1] [µM] | half-life [2] [h] | half-life [3] [h] | Kd(UBA)/Kd(TUBE) [4] [fold] | Kd(UBA)/Kd(TUBE) [5] [fold] | binding stoichiometry (molar ratio ubiquitin:TUBE) (ubiquitin per TUBE) [6] | koff [7] [s⁻¹] | t1/2 (first dissociation phase) [7] [s] | koff [8] [s⁻¹] | t1/2 (first dissociation phase) [8] [s] | koff [9] [s⁻¹] | koff [10] [s⁻¹] | Kd [11] [µM] | Kd [12] [µM] | Kd [13] [µM] | fold more binding (against one UBA copy) [14] [fold] | N (stoichiometry of Ubiquitin-UBA interaction) [15]
Ubiquilin1 TUBE (TUBE comprising 4 ubiquilin-1 UBA domains, GST fusion with His6 and SV5 tags) (designed binder) | 0.17 | > 5 | > 5 | 84 | 833 | 4 | 0.03 | 25 | 0.03 | 25 | 0.0004 | 0.0004 | 0.0143 | 0.0006 | 30.2 |  | 
hHR23A TUBE (TUBE comprising 4 hHR23a UBA-1 domains, GST fusion with His6 and SV5 tags) (designed binder) | 0.17 | > 5 | > 5 | 663 | 943 | 4 | 0.03 | 25 | 0.03 | 25 | 0.0004 | 0.0004 | 0.00935 | 0.00488 | 65.8 |  | 
p62×4 (four domains of the p62-UBA fused to GST; TUBE comprising 4 p62 UBA domains) (designed binder) |  |  |  |  |  |  |  |  |  |  |  |  |  |  |  | 6 | 5.8
